The chains are these.
B1: Sema3A (26-760) (ligand, UniProt Q14563 26-760, looked up)
chain: KNNVPRLKLSYKEMLESNNVITFNGLANSSSYHTFLLDEERSRLYVGAKDHIFSFDLVNIKDFQKIVWPVSYTRRDECKWAGKDILKECANFIKVLKAYNQTHLYACGTGAFHPICTYIEIGHHPEDNIFKLENSHFENGRGKSPYDPKLLTASLLIDGELYSGTAADFMGRDFAIFRTLGHHHPIRTEQHDSRWLNDPKFISAHLISESDNPEDDKVYFFFRENAIDGEHSGKATHARIGQICKNDFGGHRSLVNKWTTFLKARLICSVPGPNGIDTHFDELQDVFLMNFKDPKNPVVYGVFTTSSNIFKGSAVCMYSMSDVRRVFLGPYAHRDGPNYQWVPYQGRVPYPRPGTCPSKTFGGFDSTKDLPDDVITFARSHPAMYNPVFPMNNRPIVIKTDVNYQFTQIVVDRVDAEDGQYDVMFIGTDVGTVLKVVSIPKETWYDLEEVLLEEMTVFREPTAISAMELSTKQQQLYIGSTAGVAQLPLHRCDIYGKACAECCLARDPYCAWDGSACSRYFPTAKRRTRRQDIRNGDPLTHCSDLHHDNHHGHSPEERIIYGVENSSTFLECSPKSQRALVYWQFQRRNEERKEEIRVDDHIIRTDQGLLLRSLQQKDSGNYLCHAVEHGFIQTLLKVTLEVIDTEHLEELLHKDDDGDGSKTKEMSNSMTPSQKVWYRDFMQLINHPNLNTMDEFCEQVWKRDRKQRRQRPGHTPGNSNKWKHLQENKKGRNRR
notes: range 26-760; Control ligand; Biotinylated in the ELISA; also called Semaphorin3A; Semaphorin 3A
B2: b1b2 domains (275-595) of neuropilin-2 (receptor, UniProt O60462 275-595, looked up)
chain: FQCNVPLGMESGRIANEQISASSTYSDGRWTPQQSRLHGDDNGWTPNLDSNKEYLQVDLRFLTMLTAIATQGAISRETQNGYYVKSYKLEVSTNGEDWMVYRHGKNHKVFQANNDATEVVLNKLHAPLLTRFVRIRPQTWHSGIALRLELFGCRVTDAPCSNMLGMLSGLIADSQISASSTQEYLWSPSAARLVSSRSGWFPRIPQAQPGEEWLQVDLGTPKTVKGVIIQGARGGDSITAVEARAFVRKFKVSYSLNGKDWEYIQDPRTQQPKLFEGNMHYDTPDIRRFDPIPAQYVRVYPERWSPAGIGMRLEVLGCDWT
notes: range 275-595; Purified soluble domain; also called NRP2-b1b2; NRP-2 b1b2
B4: b1b2 domains (273-586) of neuropilin-1 (receptor, UniProt O14786 273-586, looked up)
chain: FKCMEALGMESGEIHSDQITASSQYSTNWSAERSRLNYPENGWTPGEDSYREWIQVDLGLLRFVTAVGTQGAISKETKKKYYVKTYKIDVSSNGEDWITIKEGNKPVLFQGNTNPTDVVVAVFPKPLITRFVRIKPATWETGISMRFEVYGCKITDYPCSGMLGMVSGLISDSQITSSNQGDRNWMPENIRLVTSRSGWALPPAPHSYINEWLQIDLGEEKIVRGIIIQGGKHRENKVFMRKFKIGYSNNGSDWKMIMDDSKRKAKSFEGNNNYDTPELRTFPALSTRFIRIYPERATHGGLGLRMELLGCEVE
notes: range 273-586; Purified soluble domain; No tag described; also called NRP1-b1b2; NRP-1 b1b2

For assay [1], the target named is B4. Put plainly: competition ELISA on plate-bound NRP1-b1b2: Sema3A titrated against Fc-15F22P (30 nM), absorbance at 405 nm [right panel Fc-15F22P]. The procedure:
(§1) Specifically, b1b2 domains (273-586) of neuropilin-1 and b1b2 domains (275-595) of neuropilin-2 were bound in 96-well EIA/RIA plates (COSTAR Corning In., USA) at room temperature for 1 hour, and then washed three times for 10 minutes with 0.1% PBST (0.1% Tween20, pH 7.4, 137 mM NaCl, 10 mM Phosphate, 2.7 mM KCl, SIGMA-ALDRICH co., USA). After binding for 1 hour with 5% skim milk (pH 7.4, 137 mM NaCl, 10 mM Phosphate, 2.7 mM KCl, SIGMA-ALDRICH co., USA), it was washed three times for 10 minutes with 0.1% PBST (0.1% Tween20, pH 7.4, 137 mM NaCl, 10 mM Phosphate, 2.7 mM KCl, SIGMA-ALDRICH co., USA).
For orientation: An ELISA detects its analyte on a solid surface through an enzyme-linked reagent.

In assay [2] the target is B4. Kind of assay: competition ELISA on plate-bound NRP1-b1b2: Sema3A titrated against Fc-15A22P (30 nM), absorbance at 405 nm [left panel Fc-15A22P]. The procedure:
as §1

For another assay, the target named is T1, Sema3F (19-779) (UniProt Q13275 19-779).
T1 construct: range 19-779; Control ligand; Biotinylated in the ELISA; also called Semaphorin 3F
T1 sequence (looked up): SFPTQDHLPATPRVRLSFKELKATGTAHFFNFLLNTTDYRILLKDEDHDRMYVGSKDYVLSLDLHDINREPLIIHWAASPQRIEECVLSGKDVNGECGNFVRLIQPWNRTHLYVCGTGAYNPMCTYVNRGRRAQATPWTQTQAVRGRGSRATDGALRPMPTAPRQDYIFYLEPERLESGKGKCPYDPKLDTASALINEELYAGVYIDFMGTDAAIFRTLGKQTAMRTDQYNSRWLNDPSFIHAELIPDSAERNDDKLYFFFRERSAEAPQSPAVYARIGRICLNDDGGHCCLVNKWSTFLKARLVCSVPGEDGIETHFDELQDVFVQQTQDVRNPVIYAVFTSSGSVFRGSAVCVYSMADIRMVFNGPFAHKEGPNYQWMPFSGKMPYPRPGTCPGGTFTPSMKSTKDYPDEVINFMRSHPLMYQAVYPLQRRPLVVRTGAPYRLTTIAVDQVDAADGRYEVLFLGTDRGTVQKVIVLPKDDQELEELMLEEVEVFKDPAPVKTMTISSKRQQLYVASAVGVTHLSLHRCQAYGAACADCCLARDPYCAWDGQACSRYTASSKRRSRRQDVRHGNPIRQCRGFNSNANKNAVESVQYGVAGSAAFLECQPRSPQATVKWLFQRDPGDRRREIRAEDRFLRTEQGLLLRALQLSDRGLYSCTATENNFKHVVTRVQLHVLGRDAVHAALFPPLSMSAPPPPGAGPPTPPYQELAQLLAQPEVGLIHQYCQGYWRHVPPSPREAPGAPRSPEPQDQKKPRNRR
Kind of assay: SPR Biacore 2000, NRP b1b2 on CM5 chip. The method, then:
(§2) Specifically, each b1b2 domain of neuropilin-1 and -2 was diluted with 10 mM Na-acetate buffer (pH 4.0), and fixed onto CM5 sensor chips (GE healthcare, USA) in about 1000 response units (RU). […] After bond and dissociation analysis, the regeneration of CM5 chip was performed by streaming a buffer (20 Mm NaOH, 1 M NaCl, pH 10.0) at a stream velocity 30 μl/min for 1 minute.
A general note: Surface plasmon resonance follows binding to a sensor surface in real time, without labels.

The assay “Sema3A (26-760)” has as its target B1. Kind of assay: SPR Biacore 2000, NRP b1b2 on CM5 chip.
Assay [3] concerns the target B4. Kind of assay: competition ELISA on plate-bound NRP1-b1b2: VEGF165 titrated against Fc-15F22P (30 nM), absorbance at 405 nm [right panel Fc-15F22P]. The procedure:
as §1

Assay [4] concerns the target B4. Put plainly: SPR Biacore 2000, NRP b1b2 on CM5 chip. The method, then:
as §2

Assay [5] addresses B2. Put plainly: SPR Biacore 2000, NRP b1b2 on CM5 chip. The method, then:
as §2

For assay [6], the target named is B4. Kind of assay: SPR Biacore 2000, NRP b1b2 on CM5 chip. The procedure: as §2
The source holds these as a separate data set.

For assay [7], the target named is B2. Put plainly: SPR Biacore 2000, NRP b1b2 on CM5 chip. The method, then: as §2
This is another data set of the same source.

Assay [8] has as its target B4. Kind of assay: competition ELISA on plate-bound NRP1-b1b2: VEGF165 titrated against Fc-15A22P (30 nM), absorbance at 405 nm [left panel Fc-15A22P]. The procedure: as §1

As usually defined, the Kd is the concentration at which binding is half-saturated. One may read the koff as the rate constant with which the complex falls apart. Lower therefore signals a long-lived complex. By kon is commonly meant a measure of how fast the partners come together. Higher therefore signals fast association.

Like-named read-outs stand apart in the source and are kept apart here.

For the molecule B1, the “IC50 (read off the curve)” value in [1] and in assay [2] was ~20 nM in each case.

In the case of B2, in the assay with Sema3F (19-779), binding was put at a Kd of 345 nM, the koff was 0.0015 s⁻¹ and the kon amounted to 4340 M⁻¹ s⁻¹. In the assay with Sema3A (26-760), this molecule gave a dissociation constant Kd of 231 nM, an off-rate constant (koff) of 0.00161 s⁻¹ and a kon of 6960 M⁻¹ s⁻¹.

B3: VEGF165A (ligand, UniProt P15692-4 27-191, looked up)
chain: APMAEGGGQNHHEVVKFMDVYQRSYCHPIETLVDIFQEYPDEIEYIFKPSCVPLMRCGGCCNDEGLECVPTEESNITMQIMRIKPHQGQHIGEMSFLQHNKCECRPKKDRARQENPCGPCSERRKHLFVQDPQTCKCSCKNTDSRCKARQLELNERTCRCDKPRR
notes: Control ligand; biotinylated in the ELISA; also called vascular endothelial cell growth factor-A
On to B3, for which the entries for the “IC50 (read off the curve)” value in [3] and in assay [8] were ~2 nM and ~3 nM, respectively. Further, the Kd in [4] was determined as 3.51 nM; in assay [5], 32 nM; in assay [6] it was 3.51 nM; in assay [7], 32 nM. The koff in [4] amounted to 0.00342 s⁻¹; in assay [5], 0.00373 s⁻¹; in assay [6] it was 0.00342 s⁻¹; in [7], 0.00373 s⁻¹. For the same molecule, the on-rate constant (kon) was 975000 M⁻¹ s⁻¹ in assay [4], 117000 M⁻¹ s⁻¹ in assay [5], 975000 M⁻¹ s⁻¹ in assay [6] and 117000 M⁻¹ s⁻¹ in [7].

B4: in the assay with Sema3F (19-779), the equilibrium dissociation constant (Kd) amounted to 245 nM, the koff came to 0.000973 s⁻¹ and the kon came out at 3980 M⁻¹ s⁻¹. In addition, in the assay with Sema3A (26-760), the Kd worked out at 27.9 nM, the koff was 0.000808 s⁻¹ and the on-rate constant (kon) amounted to 28900 M⁻¹ s⁻¹.

(Values after US20160130315A1 (AJOU UNIVERSITY INDUSTRY ACADEMIC COOPERATION FOUNDATION, published 2016).)
